Target: CD20 (UniProt P11836)
Experiment: cell-based or functional assay

Chain of UniProt P11836 (P11836 whole entry): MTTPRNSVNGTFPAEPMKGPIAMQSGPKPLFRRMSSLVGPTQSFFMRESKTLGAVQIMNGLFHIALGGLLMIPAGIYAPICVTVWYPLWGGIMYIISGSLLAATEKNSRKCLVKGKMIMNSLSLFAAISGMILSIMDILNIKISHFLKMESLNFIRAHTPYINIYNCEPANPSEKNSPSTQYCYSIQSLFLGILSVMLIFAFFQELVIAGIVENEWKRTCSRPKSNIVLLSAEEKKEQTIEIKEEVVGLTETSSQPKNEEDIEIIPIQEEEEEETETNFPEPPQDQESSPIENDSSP

Substance: Rituximab (antibody)
- ADCC on Raji cells with NK92MI-CD16a effector cells (LDH release), EC50(ng/mL): 0.607 ng/mL
- CDC on Raji cells with human serum complement (LDH release), EC50(ng/mL): 210 ng/mL

— patent CN112980851A
